The text below walks through data of patent US7148338B2, “Nucleic acids encoding dipeptidyl peptidases” (The University of Sydney, priority 1999, dated 2006).

For one series, the target named is T1, DPP8 (Homo sapiens, UniProt Q6V1X1).
T1 construct: the full length DPP8 cDNA of 3.1 kb was cloned into the Xba I site of pcDNA3.1A/V5/His expression vector; expressed in transfected cells; host or cells: COS-7 (monkey kidney fibroblast) cells; clarified sonicated cell extract
Kind of series: pH-dependence of DPP8 enzyme activity. It is filed as biochemical. The method, then:
FIG. 7. DPP8 enzyme activity. (A) pH-dependence of DPP8 enzyme activity. (B) DPP8 and DPPIV enzyme kinetics. Means +/− SD of absorbance change per minute, multiplied by 1000 are shown. Curve fitting assumed Michaelis-Menten kinetics.
Enzyme assays were performed as described previously. Either clarified cell extract from 1×10^4 sonicated COS-7 cells or purified protein derived from 1×10^5 cells was incubated with substrate in 70 μL phosphate buffer, pH 7.4, for 30 min at 37° C., except where otherwise indicated. The specific DPPIV substrates, Gly-Pro-toluenesulfonate, H-Gly-Pro-p-nitroanilide (NA)/HCl (Sigma, St Louis, Mo., USA) and Gly-Pro-7-amino-4-trifluromethylcoumarin (Calbiochem, San Diego, Calif., USA) were tested. Other substrates tested were H-Ala-Pro-pNA/HCl, H-Arg-Pro-pNA acetate salt, H-Lys-Ala-pNA.2HCl, H-Asp-Pro-pNA, H-Ala-Ala-pNA/HCl, H-Ala-Ala-Pro-pNA/HCl, H-Ala-Ala-Phe-pNA, succinyl-Ala-Pro-pNA, H-Ala-Phe-Pro-pNA and Z-Ala-Pro-p-NA from Bachem (Switzerland). H-Ala-Pro-4-methoxyβNA/HCl, Z-Lys-Pro-4-methoxyβNAformate salt, H-Lys-Pro-4-methoxyβNA/HCl, Z-Ala-Pro-4-methoxyβNA, H-Gly-Pro-βNA and H-His-Ser-4-methoxyβNAacetate salt (Bachem) were tested for their ability to stain unfixed transfected cells. All inhibitors were (see Table 2) incubated with each purified enzyme in phosphate buffer, pH 7.4, for 15 min before the addition of substrate. […]

In a further series the target is DPPIV (Homo sapiens, UniProt P27487). Conditions: references [43,44]; cited from earlier work.

B1: DPP8: novel human dipeptidyl peptidase, amino acid sequence SEQ ID NO:1, 882 amino acids (protein, listed as Homo Sapiens)
chain: MAAAMETEQLGVEIFETADCEENIESQDRPKLEPFYVERYSWSQLKKLLADTRKYHGYMMAKAPHDFMFVKRNDPDGPHSDRIYYLAMSGENRENTLFYSEIPKTINRAAVLMLSWKPLLDLFQATLDYGMYSREEELLRERKRIGTVGIASYDYHQGSGTFLFQAGSGIYHVKDGGPQGFTQQPLRPNLVETSCPNIRMDPKLCPADPDWIAFIHSNDIWISNIVTREERRLTYVHNELANMEEDARSAGVATFVLQEEFDRYSGYWWCPKAETTPSGGKILRILYEENDESEVEIIHVTSPMLETRRADSFRYPKTGTANPKVTFKMSEIMIDAEGRIIDVIDKELIQPFEILFEGVEYIARAGWTPEGKYAWSILLDRSQTRLQIVLISPELFIPVEDDVMERQRLIESVPDSVTPLIIYEETTDIWINIHDIFHVFPQSHEEEIEFIFASECKTGFRHLYKITSILKESKYKRSSGGLPAPSDFKCPIKEEIAITSGEWEVLGRHGSNIQVDEVRRLVYFEGTKDSPLEHHLYVVSYVNPGEVTRLTDRGYSHSCCISQHCDFFISKYSNQKNPHCVSLYKLSSPEDDPTCKTKEFWATILDSAGPLPDYTPPEIFSFESTTGFTLYGMLYKPHDLQPGKKYPTVLFIYGGPQVQLVNNRFKGVKYFRLNTLASLGYVVVVIDNRGSCHRGLKFEGAFKYKMGQIEIDDQVEGLQYLASRYDFIDLDRVGIHGWSYGGYLSLMALMQRSDIFRVAIAGAPVTLWIFYDTGYTERYMGHPDQNEQGYYLGSVAMQAEKFPSEPNRLLLLHGFLDENVHFAHTSILLSFLVRAGKPYDLQIYPQERHSIRVPESGEHYELHLLHYLQENLGSRIAALKVI
Take B1: the “pH optimum of enzyme activity” value in the series with DPP8 is 7.4.

B2: DPPIV: dipeptidyl peptidase IV, comparator enzyme (protein)
chain: MKTPWKVLLGLLGAAALVTIITVPVVLLNKGTDDATADSRKTYTLTDYLKNTYRLKLYSLRWISDHEYLYKQENNILVFNAEYGNSSVFLENSTFDEFGHSINDYSISPDGQFILLEYNYVKQWRHSYTASYDIYDLNKRQLITEERIPNNTQWVTWSPVGHKLAYVWNNDIYVKIEPNLPSYRITWTGKEDIIYNGITDWVYEEEVFSAYSALWWSPNGTFLAYAQFNDTEVPLIEYSFYSDESLQYPKTVRVPYPKAGAVNPTVKFFVVNTDSLSSVTNATSIQITAPASMLIGDHYLCDVTWATQERISLQWLRRIQNYSVMDICDYDESSGRWNCLVARQHIEMSTTGWVGRFRPSEPHFTLDGNSFYKIISNEEGYRHICYFQIDKKDCTFITKGTWEVIGIEALTSDYLYYISNEYKGMPGGRNLYKIQLSDYTKVTCLSCELNPERCQYYSVSFSKEAKYYQLRCSGPGLPLYTLHSSVNDKGLRVLEDNSALDKMLQNVQMPSKKLDFIILNETKFWYQMILPPHFDKSKKYPLLLDVYAGPCSQKADTVFRLNWATYLASTENIIVASFDGRGSGYQGDKIMHAINRRLGTFEVEDQIEAARQFSKMGFVDNKRIAIWGWSYGGYVTSMVLGSGSGVFKCGIAVAPVSRWEYYDSVYTERYMGLPTPEDNLDHYRNSTVMSRAENFKQVEYLLIHGTADDNVHFQQSAQISKALVDVGVDFQAMWYTDEDHGIASSTAHQHIYTHMSHFIKQCFSLP
modifications: left off: small tags and cut ends
notes: dipeptidyl peptidase IV, comparator enzyme
On to B2, for which, in the series with DPPIV, the “pH optimum of enzyme activity” value was 7.8.
